Measured values from patent publication US20200317779A1.

Key:
[1] = molecular target: recombinant human CD3ε/δ heterodimer (human) (UniProt P07766); experiment: ELISA, coated CD3ε/δ
[2] = molecular target: recombinant cynomolgus monkey CD3ε/δ heterodimer (cynomolgus monkey) (UniProt Q95LI5); experiment: ELISA, coated CD3ε/δ
recombinant cynomolgus monkey CD3ε/δ heterodimer (cynomolgus monkey), sequence (Q95LI5 22-117, stated change not applied, chain 1 of 2): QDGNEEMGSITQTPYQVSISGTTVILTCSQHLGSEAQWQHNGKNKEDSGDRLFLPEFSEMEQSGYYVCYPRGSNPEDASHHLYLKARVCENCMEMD
recombinant cynomolgus monkey CD3ε/δ heterodimer (cynomolgus monkey), sequence (Q95LI8 22-105, stated change not applied, chain 2 of 2, further chain): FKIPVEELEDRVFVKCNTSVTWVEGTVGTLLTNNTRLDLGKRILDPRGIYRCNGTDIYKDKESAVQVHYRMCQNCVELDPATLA

recombinant human CD3ε/δ heterodimer (human), sequence (P07766 23-126, stated change not applied, chain 1 of 2): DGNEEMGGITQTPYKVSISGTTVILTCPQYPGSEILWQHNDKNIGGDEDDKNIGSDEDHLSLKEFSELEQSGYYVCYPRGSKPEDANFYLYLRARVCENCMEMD
recombinant human CD3ε/δ heterodimer (human), sequence (P04234 22-105, stated change not applied, chain 2 of 2, further chain): as the sequence (Q95LI8 22-105, stated change not applied, chain 2 of 2, further chain) above, with V5I, K15N, V20I, T32S, N33D, N34I, A64T, N74S, L83V counted along it

| Absorbance (450 nm) [1] | Absorbance (450 nm) [2] | Binder |
| --- | --- | --- |
| 0.087 | 0.065 | C12 (antibody, human IgG1, lambda, L234A L235A, V domains shown) VH: EVQLVESGGGLVQPGGSLKLSCAASGFTFNTYAMNWVRQASGKGLEWVGRIRSKYNNYATYYADSVKDRFTISRDDSQSTAYLQMNSLKTEDTAVYYCVRHGNFGNSYVSWFAYWGQGTLVTVSS VL: QAVVTQEPSLTVSPGGTVTLTCRSSTGAVTTSNYANWVQQKPGQAPRTLIGGTNKRAPWTPARFSGSLLGDKAALTLSGAQPEDEAEYYCALWYSNLWVFGGGTKLTVLG |
| 0.107 | 0.095 | C14 (antibody, human IgG1, lambda, L234A L235A, V domains shown) VH: EVQLVESGGGLVQPGGSLKLSCAASGFTFNTYAMNWVRQASGKGLEWVGRIRSKYNNYATYYADSVKDRFTISRDDSQSTAYLQMNSLKTEDTAVYYCVRHGNFGNSYVSWFAYWGQGTLVTVSS VL: QAVVTQEPSLTVSPGGTVTLTCRSSTGAVTTSNYANWVQQKPGQAPRGLIYGTNKRAPWTPARFSGSLLGDKAALTLSGAQPEDEAEYYCALWYSNLWVFGGGTKLTVLG |
| 0.136 | 0.11 | D06 (antibody, human IgG1, lambda, L234A L235A, V domains shown) VH: EVQLVESGGGLVQPGGSLKLSCAASGFTFNTYAMNWVRQASGKGLEWVGRIRSKYNNYATYYADSVKDRFTISRDDSQSTLYLQMNSLKTEDTAVYYCVRHGNFGNSYVSWFAYWGQGTLVTVSS VL: QAVVTQEPSLTVSPGGTVTLTCRSSTGAVTTSNYANWFQQKPGQAPRGLIYGTNKRAPWTPARFSGSLLGDKAALTLSGAQPEDEAEYYCALWYSNLWVFGGGTKLTVLG |
| 0.096 | 0.074 | C10 (antibody, human IgG1, lambda, L234A L235A, V domains shown) VH: EVQLVESGGGLVQPGGSLKLSCAASGFTFNTYAMNWVRQASGKGLEWVGRIRSKYNNYATYYADSVKDRFTISRDDSQSTAYLQMNSLKTEDTAVYYCVRHGNFGNSYVSWFAYWGQGTLVTVSS VL: QAVVTQEPSLTVSPGGTVTLTCRSSTGAVTTSNYANWVQQKPGQAPRTLIYGTNKRAPWTPARFSGSLLGDKAALTLSGAQPEDEAEYYCALWYSNLWVFGGGTKLTVLG |
| 0.288 | 0.261 | C11 (antibody, human IgG1, lambda, L234A L235A, V domains shown) VH: EVQLVESGGGLVQPGGSLKLSCAASGFTFNTYAMNWVRQASGKGLEWVGRIRSKYNNYATYYADSVKDRFTISRDDSQSTAYLQMNSLKTEDTAVYYCVRHGNFGNSYVSWFAYWGQGTLVTVSS VL: QAVVTQEPSLTVSPGGTVTLTCRSSTGAVTTSNYANWVQQKPGQAPRTLIGGTNKRAPWTPARFSGSLLGGKAALTLSGAQPEDEAEYYCALWYSNLWVFGGGTKLTVLG |
| 0.109 | 0.075 | C09 (antibody, human IgG1, lambda, L234A L235A, V domains shown) VH: EVQLVESGGGLVQPGGSLKLSCAASGFTFNTYAMNWVRQASGKGLEWVGRIRSKYNNYATYYADSVKDRFTISRDDSQSTAYLQMNSLKTEDTAVYYCVRHGNFGNSYVSWFAYWGQGTLVTVSS VL: QAVVTQEPSLTVSPGGTVTLTCRSSTGAVTTSNYANWVQQKPGQAPRTLIYGTNKRAPWTPARFSGSLLGGKAALTLSGAQPEDEAEYYCALWYSNLWVFGGGTKLTVLG |
| 0.108 | 0.083 | C06 (antibody, human IgG1, lambda, L234A L235A, V domains shown) VH: EVQLVESGGGLVQPGGSLKLSCAASGFTFNTYAMNWVRQASGKGLEWVGRIRSKYNNYATYYADSVKDRFTISRDDSQSTAYLQMNSLKTEDTAVYYCVRHGNFGNSYVSWFAYWGQGTLVTVSS VL: QAVVTQEPSLTVSPGGTVTLTCRSSTGAVTTSNYANWFQQKPGQAPRGLIYGTNKRAPWTPARFSGSLLGDKAALTLSGAQPEDEAEYYCALWYSNLWVFGGGTKLTVLG |
| 0.14 | 0.108 | A06 (antibody, human IgG1, lambda, L234A L235A, V domains shown) VH: EVQLVESGGGLVQPGGSLKLSCAASGFTFNTYAMNWVRQASGKGLEWVGRIRSKYNNYATYYADSVKDRFTISRDDSKNTAYLQMNSLKTEDTAVYYCVRHGNFGNSYVSWFAYWGQGTLVTVSS VL: QAVVTQEPSLTVSPGGTVTLTCRSSTGAVTTSNYANWFQQKPGQAPRGLIYGTNKRAPWTPARFSGSLLGDKAALTLSGAQPEDEAEYYCALWYSNLWVFGGGTKLTVLG |
| 0.179 | 0.179 | C13 (antibody, human IgG1, lambda, L234A L235A, V domains shown) VH: EVQLVESGGGLVQPGGSLKLSCAASGFTFNTYAMNWVRQASGKGLEWVGRIRSKYNNYATYYADSVKDRFTISRDDSQSTAYLQMNSLKTEDTAVYYCVRHGNFGNSYVSWFAYWGQGTLVTVSS VL: QAVVTQEPSLTVSPGGTVTLTCRSSTGAVTTSNYANWVQQKPGQAPRGLIYGTNKRAPWTPARFSGSLLGGKAALTLSGAQPEDEAEYYCALWYSNLWVFGGGTKLTVLG |
| 0.167 | 0.141 | A05 (antibody, human IgG1, lambda, L234A L235A, V domains shown) VH: EVQLVESGGGLVQPGGSLKLSCAASGFTFNTYAMNWVRQASGKGLEWVGRIRSKYNNYATYYADSVKDRFTISRDDSKNTAYLQMNSLKTEDTAVYYCVRHGNFGNSYVSWFAYWGQGTLVTVSS VL: QAVVTQEPSLTVSPGGTVTLTCRSSTGAVTTSNYANWFQQKPGQAPRGLIYGTNKRAPWTPARFSGSLLGGKAALTLSGAQPEDEAEYYCALWYSNLWVFGGGTKLTVLG |

Further lines, the binder ahead of its results:

| Binder | Absorbance (450 nm) [1] | Absorbance (450 nm) [2] |
| --- | --- | --- |
| C02 (antibody, human IgG1, lambda, L234A L235A, V domains shown) VH: EVQLVESGGGLVQPGGSLKLSCAASGFTFNTYAMNWVRQASGKGLEWVGRIRSKYNNYATYYADSVKDRFTISRDDSQSTAYLQMNSLKTEDTAVYYCVRHGNFGNSYVSWFAYWGQGTLVTVSS VL: QAVVTQEPSLTVSPGGTVTLTCRSSTGAVTTSNYANWFQQKPGQAPRTLIYGTNKRAPWTPARFSGSLLGDKAALTLSGAQPEDEAEYYCALWYSNLWVFGGGTKLTVLG | 0.099 | 0.071 |
| D02 (antibody, human IgG1, lambda, L234A L235A, V domains shown) VH: EVQLVESGGGLVQPGGSLKLSCAASGFTFNTYAMNWVRQASGKGLEWVGRIRSKYNNYATYYADSVKDRFTISRDDSQSTLYLQMNSLKTEDTAVYYCVRHGNFGNSYVSWFAYWGQGTLVTVSS VL: QAVVTQEPSLTVSPGGTVTLTCRSSTGAVTTSNYANWFQQKPGQAPRTLIYGTNKRAPWTPARFSGSLLGDKAALTLSGAQPEDEAEYYCALWYSNLWVFGGGTKLTVLG | 0.15 | 0.073 |
| C03 (antibody, human IgG1, lambda, L234A L235A, V domains shown) VH: EVQLVESGGGLVQPGGSLKLSCAASGFTFNTYAMNWVRQASGKGLEWVGRIRSKYNNYATYYADSVKDRFTISRDDSQSTAYLQMNSLKTEDTAVYYCVRHGNFGNSYVSWFAYWGQGTLVTVSS VL: QAVVTQEPSLTVSPGGTVTLTCRSSTGAVTTSNYANWFQQKPGQAPRTLIGGTNKRAPWTPARFSGSLLGGKAALTLSGAQPEDEAEYYCALWYSNLWVFGGGTKLTVLG | 0.14 | 0.089 |
| C04 (antibody, human IgG1, lambda, L234A L235A, V domains shown) VH: EVQLVESGGGLVQPGGSLKLSCAASGFTFNTYAMNWVRQASGKGLEWVGRIRSKYNNYATYYADSVKDRFTISRDDSQSTAYLQMNSLKTEDTAVYYCVRHGNFGNSYVSWFAYWGQGTLVTVSS VL: QAVVTQEPSLTVSPGGTVTLTCRSSTGAVTTSNYANWFQQKPGQAPRTLIGGTNKRAPWTPARFSGSLLGDKAALTLSGAQPEDEAEYYCALWYSNLWVFGGGTKLTVLG | 0.093 | 0.067 |
| D01 (antibody, human IgG1, lambda, L234A L235A, V domains shown) VH: EVQLVESGGGLVQPGGSLKLSCAASGFTFNTYAMNWVRQASGKGLEWVGRIRSKYNNYATYYADSVKDRFTISRDDSQSTLYLQMNSLKTEDTAVYYCVRHGNFGNSYVSWFAYWGQGTLVTVSS VL: QAVVTQEPSLTVSPGGTVTLTCRSSTGAVTTSNYANWFQQKPGQAPRTLIYGTNKRAPWTPARFSGSLLGGKAALTLSGAQPEDEAEYYCALWYSNLWVFGGGTKLTVLG | 0.136 | 0.099 |
| D04 (antibody, human IgG1, lambda, L234A L235A, V domains shown) VH: EVQLVESGGGLVQPGGSLKLSCAASGFTFNTYAMNWVRQASGKGLEWVGRIRSKYNNYATYYADSVKDRFTISRDDSQSTLYLQMNSLKTEDTAVYYCVRHGNFGNSYVSWFAYWGQGTLVTVSS VL: QAVVTQEPSLTVSPGGTVTLTCRSSTGAVTTSNYANWFQQKPGQAPRTLIGGTNKRAPWTPARFSGSLLGDKAALTLSGAQPEDEAEYYCALWYSNLWVFGGGTKLTVLG | 0.091 | 0.072 |
| A04 (antibody, human IgG1, lambda, L234A L235A, V domains shown) VH: EVQLVESGGGLVQPGGSLKLSCAASGFTFNTYAMNWVRQASGKGLEWVGRIRSKYNNYATYYADSVKDRFTISRDDSKNTAYLQMNSLKTEDTAVYYCVRHGNFGNSYVSWFAYWGQGTLVTVSS VL: QAVVTQEPSLTVSPGGTVTLTCRSSTGAVTTSNYANWFQQKPGQAPRTLIGGTNKRAPWTPARFSGSLLGDKAALTLSGAQPEDEAEYYCALWYSNLWVFGGGTKLTVLG | 0.098 | 0.065 |
| D05 (antibody, human IgG1, lambda, L234A L235A, V domains shown) VH: EVQLVESGGGLVQPGGSLKLSCAASGFTFNTYAMNWVRQASGKGLEWVGRIRSKYNNYATYYADSVKDRFTISRDDSQSTLYLQMNSLKTEDTAVYYCVRHGNFGNSYVSWFAYWGQGTLVTVSS VL: QAVVTQEPSLTVSPGGTVTLTCRSSTGAVTTSNYANWFQQKPGQAPRGLIYGTNKRAPWTPARFSGSLLGGKAALTLSGAQPEDEAEYYCALWYSNLWVFGGGTKLTVLG | 0.121 | 0.101 |
| C05 (antibody, human IgG1, lambda, L234A L235A, V domains shown) VH: EVQLVESGGGLVQPGGSLKLSCAASGFTFNTYAMNWVRQASGKGLEWVGRIRSKYNNYATYYADSVKDRFTISRDDSQSTAYLQMNSLKTEDTAVYYCVRHGNFGNSYVSWFAYWGQGTLVTVSS VL: QAVVTQEPSLTVSPGGTVTLTCRSSTGAVTTSNYANWFQQKPGQAPRGLIYGTNKRAPWTPARFSGSLLGGKAALTLSGAQPEDEAEYYCALWYSNLWVFGGGTKLTVLG | 0.107 | 0.128 |
| D03 (antibody, human IgG1, lambda, L234A L235A, V domains shown) VH: EVQLVESGGGLVQPGGSLKLSCAASGFTFNTYAMNWVRQASGKGLEWVGRIRSKYNNYATYYADSVKDRFTISRDDSQSTLYLQMNSLKTEDTAVYYCVRHGNFGNSYVSWFAYWGQGTLVTVSS VL: QAVVTQEPSLTVSPGGTVTLTCRSSTGAVTTSNYANWFQQKPGQAPRTLIGGTNKRAPWTPARFSGSLLGGKAALTLSGAQPEDEAEYYCALWYSNLWVFGGGTKLTVLG | 0.159 | 0.13 |
